The target in assay [1] is insulin-degrading enzyme (IDE). Briefly: cell-based or functional assay.
In assay [2] the target is insulin receptor in the LB lymphoma cell. Briefly: competition with native insulin for insulin receptors on LB lymphoma cells.

Consider 3 substances from patent publication US20030104981A1, “Human insulin analogues” (priority 1995, published 2003).

Sequence of insulin receptor in the LB lymphoma cell (P15208 28-748, chain 1 of 2): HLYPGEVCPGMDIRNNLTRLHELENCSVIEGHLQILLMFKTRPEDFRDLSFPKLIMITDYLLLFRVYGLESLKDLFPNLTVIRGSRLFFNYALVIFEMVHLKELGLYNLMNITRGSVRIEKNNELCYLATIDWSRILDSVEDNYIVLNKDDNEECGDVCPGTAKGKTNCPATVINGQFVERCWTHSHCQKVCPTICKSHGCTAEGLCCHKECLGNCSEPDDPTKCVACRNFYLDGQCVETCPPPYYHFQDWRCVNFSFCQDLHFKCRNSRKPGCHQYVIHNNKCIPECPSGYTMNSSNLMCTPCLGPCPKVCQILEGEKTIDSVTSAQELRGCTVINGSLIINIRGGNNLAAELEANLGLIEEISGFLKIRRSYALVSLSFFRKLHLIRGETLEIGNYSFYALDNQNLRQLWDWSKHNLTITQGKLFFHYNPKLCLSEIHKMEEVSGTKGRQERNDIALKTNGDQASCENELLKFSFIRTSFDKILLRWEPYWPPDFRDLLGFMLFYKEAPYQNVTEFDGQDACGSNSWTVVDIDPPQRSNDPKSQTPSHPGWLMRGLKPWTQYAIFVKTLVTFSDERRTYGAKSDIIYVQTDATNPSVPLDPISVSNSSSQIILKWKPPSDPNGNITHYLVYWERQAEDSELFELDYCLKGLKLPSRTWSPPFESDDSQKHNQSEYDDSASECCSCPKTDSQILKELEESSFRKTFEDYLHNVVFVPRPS
Sequence of insulin receptor in the LB lymphoma cell (P15208 753-1372, chain 2 of 2): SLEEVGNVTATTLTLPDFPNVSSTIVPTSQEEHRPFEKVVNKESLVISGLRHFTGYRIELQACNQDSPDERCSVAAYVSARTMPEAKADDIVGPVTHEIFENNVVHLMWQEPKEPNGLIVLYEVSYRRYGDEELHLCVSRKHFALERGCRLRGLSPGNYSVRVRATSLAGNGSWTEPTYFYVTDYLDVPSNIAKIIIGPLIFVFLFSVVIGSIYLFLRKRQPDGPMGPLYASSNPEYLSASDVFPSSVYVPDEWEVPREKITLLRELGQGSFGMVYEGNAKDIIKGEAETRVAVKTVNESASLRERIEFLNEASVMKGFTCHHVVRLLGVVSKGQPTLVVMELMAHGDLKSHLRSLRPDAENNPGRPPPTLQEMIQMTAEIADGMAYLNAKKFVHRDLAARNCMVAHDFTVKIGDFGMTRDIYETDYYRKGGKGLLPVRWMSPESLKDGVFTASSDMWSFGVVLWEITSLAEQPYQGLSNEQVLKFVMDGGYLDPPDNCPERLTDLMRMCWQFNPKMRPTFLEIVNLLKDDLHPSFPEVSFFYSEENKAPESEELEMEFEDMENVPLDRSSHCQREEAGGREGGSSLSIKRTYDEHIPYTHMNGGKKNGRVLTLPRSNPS

For the substance “^125I A14 mono-iodo porcine insulin (from UniProt P01315 25-54) (ligand)”, in assay [1], the TCA assay analysis of degradation, 10 minutes incubation came to 25.9%; the TCA assay analysis of degradation, 20 minutes incubation was 66.8%; the TCA solubility after 15 minutes of incubation, IDE dilution 1:30 came out at 22.5%.
As to “des-(B26-B30)-[Glu-B10; Ser-B17; Tyr-B25-NH2] Radoyka I human insulin analogue (ligand)”, in assay [2], the binding affinity as percent of native insulin turned out to be 20% and the times less binding affinity than native insulin was 5 times.
“des-(B26-B30)-[Glu-B10; Thr-B14; Ser-B17; Tyr-B25-NH2] Radoyka II human insulin analogue (ligand)”: the stability from insulin-degrading enzyme against ^125I A14 porcine insulin (TCA precipitation or HPLC assay) in assay [1] was 4.5 times. In assay [2], the binding affinity as percent of native insulin worked out at 10% and the times less binding affinity than native insulin turned out to be 10 times.
